The target in assay [1] is p27-KID (Homo sapiens, UniProt P46527). As to the kind of experiment: 2D 1H-15N HSQC NMR screening and titration of compounds into 15N-p27-KID. The conditions noted are these: read-out: Kd (from CSP); single-site binding model fitted to chemical shift perturbation; 298 K, pH 6.5.
Description: Two-dimensional (2D)^1H-^15N HSQC NMR experiments were performed using a SampleJet sample changer. […] Chemical shift perturbation values were quantified using the equation Δδ=√{square root over (ΔδH^2+(0.2ΔδN)^2)}. The statistical significance was based on a threshold defined as the average CSP value plus two times the standard deviation of the mean (Δδave+2σ).
Assay [2] has as its target T1, Cdk2/cyclin A (Homo sapiens, UniProt P24941).
T1 construct: Full length human Cdk2; made in house
The assay can be described thus: Cdk2/cyclin A kinase activity assay (32P incorporation into Histone H1). Format: biochemical. The conditions noted are these: Histone H1 as substrate; read-out: Half maximal Cdk2/cyclin A inhibitory concentration (IC50). The procedure: Cdk2/Cyclin A ([…]) was mixed with Histone H1 (50 μM; EMD Millipore) and varied amounts of p27 constructs and incubated for 3 hours at 4° C. […] IC50 values were determined by curve fitting using GraphPad Prizm 7 software. Experiments were performed in triplicate and mean IC50 and standard deviations of the mean values are reported.

The target of assay [3] is T2, Cdk2 (Homo sapiens, UniProt P24941).
T2 construct: Full length human Cdk2; made in house
The assay can be described thus: Isothermal titration calorimetry of p27 variants into Cdk2. The conditions noted are these: ITC at 25° C., binding to Cdk2. On the procedure: (§1) ITC experiments were performed using a MicroCal ITC200 calorimeter with p27 variants in the syringe and Cdk2/cyclin A and Cdk2, respectively, in the cell. Prior to each set of experiments, protein samples were extensively dialyzed together against ITC buffer containing 20 mM HEPES, pH 7.5, 300 mM NaCl, 5 mM TCEP. A standard titration consisted of 19 injections of 2-μl of p27 variant (100 μM) into a solution of Cdk2/cyclin A (10 μM) or Cdk2 (10 μM), respectively. The time interval between injections was 180 s. Experiments were performed at 25° C. Thermodynamic parameters were obtained by fitting the raw data using Origin software (OriginLab) according to the manufacturers instructions using a 1:1 binding model to obtain values of the enthalpy of binding (ΔH), Gibbs free energy of binding (ΔG), entropy of binding (ΔS), and stoichiometry factor (N). Experiments were performed in triplicate and mean and standard deviations of the mean values of these parameters are reported.
For orientation: Isothermal titration calorimetry measures the heat released or taken up as one component is titrated into another.

For assay [4], the target named is T1, Cdk2/cyclin A. The assay can be described thus: Isothermal titration calorimetry of p27 variants into Cdk2/cyclin A. The settings on record: ITC at 25° C., binding to Cdk2/cyclin A. The procedure: as §1

p27-KID, sequence (P46527 22-105): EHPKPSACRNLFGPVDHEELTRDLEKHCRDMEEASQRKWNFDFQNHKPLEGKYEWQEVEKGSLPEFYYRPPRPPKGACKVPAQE

By Kd is commonly meant the constant that tells how readily two partners part at equilibrium. With `O=c1oc2cc(OCCO)ccc2c2c1CCCC2` [SJ710], the Kd in assay [1] worked out at 4800 ± 1300 µM.

Turning to “p27-D2: D2 sub-domain of p27, residues 58-105 of human p27 (RKWNFDFQNHKPLEGKYEWQEVEKGSLPEFYYRPPRPPKGACKVPAQE; UniProt P46527 58-105, looked up, fragment)”, in assay [2], the IC50 was found to be 0.067 ± 0.022 µM. In assay [3], this compound showed an equilibrium dissociation constant (Kd) of 0.231 ± 0.0674 µM, a ΔG of -9.1 ± 0.2 kcal/mol, a ΔH of -24.5 ± 0.7 kcal/mol and a −TΔS of 15.4 ± 0.9 kcal/mol. In addition, in assay [4], the dissociation constant Kd was determined as 0.134 ± 0.0235 µM, the ΔG is -9.4 ± 0.1 kcal/mol, the ΔH is -24.7 ± 1.8 kcal/mol and the −TΔS came out at 15.3 ± 1.9 kcal/mol.

(Values after patent US20220177457A1, “SMALL MOLECULES THAT BIND CYCLIN-DEPENDENT KINASE INHIBITOR 1B (P27KIP1)” (St. Jude Children's Hospital, Inc., priority 2019, published 2022).)
